Results as given in article PMC5325763 (Cell, 2017).

Molecular target: T1, FLAG-tagged FAAP20 (human, UniProt Q6NZ36 1-180)
T1 sequence (looked up): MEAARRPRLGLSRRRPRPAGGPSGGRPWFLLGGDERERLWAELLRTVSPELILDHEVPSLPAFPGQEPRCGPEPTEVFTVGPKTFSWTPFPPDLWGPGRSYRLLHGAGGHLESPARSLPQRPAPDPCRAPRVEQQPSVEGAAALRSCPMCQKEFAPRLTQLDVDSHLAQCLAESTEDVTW
Experiment: LUMIER

fold weaker binding than wild-type FANCA: ~8 fold
B1: Renilla luciferase-tagged FANCA R880Q (natural protein, human, UniProt O15360-1 1-1455, looked up)
chain: MSDSWVPNSASGQDPGGRRRAWAELLAGRVKREKYNPERAQKLKESAVRLLRSHQDLNALLLEVEGPLCKKLSLSKVIDCDSSEAYANHSSSFIGSALQDQASRLGVPVGILSAGMVASSVGQICTAPAETSHPVLLTVEQRKKLSSLLEFAQYLLAHSMFSRLSFCQELWKIQSSLLLEAVWHLHVQGIVSLQELLESHPDMHAVGSWLFRNLCCLCEQMEASCQHADVARAMLSDFVQMFVLRGFQKNSDLRRTVEPEKMPQVTVDVLQRMLIFALDALAAGVQEESSTHKIVRCWFGVFSGHTLGSVISTDPLKRFFSHTLTQILTHSPVLKASDAVQMQREWSFARTHPLLTSLYRRLFVMLSAEELVGHLQEVLETQEVHWQRVLSFVSALVVCFPEAQQLLEDWVARLMAQAFESCQLDSMVTAFLVVRQAALEGPSAFLSYADWFKASFGSTRGYHGCSKKALVFLFTFLSELVPFESPRYLQVHILHPPLVPGKYRSLLTDYISLAKTRLADLKVSIENMGLYEDLSSAGDITEPHSQALQDVEKAIMVFEHTGNIPVTVMEASIFRRPYYVSHFLPALLTPRVLPKVPDSRVAFIESLKRADKIPPSLYSTYCQACSAAEEKPEDAALGVRAEPNSAEEPLGQLTAALGELRASMTDPSQRDVISAQVAVISERLRAVLGHNEDDSSVEISKIQLSINTPRLEPREHMAVDLLLTSFCQNLMAASSVAPPERQGPWAALFVRTMCGRVLPAVLTRLCQLLRHQGPSLSAPHVLGLAALAVHLGESRSALPEVDVGPPAPGAGLPVPALFDSLLTCRTRDSLFFCLKFCTAAISYSLCKFSSQSRDTLCSCLSPGLIKKFQFLMFRLFSEAQQPLSEEDVASLSWRPLHLPSADWQRAALSLWTHRTFREVLKEEDVHLTYQDWLHLELEIQPEADALSDTERQDFHQWAIHEHFLPESSASGGCDGDLQAACTILVNALMDFHQSSRSYDHSENSDLVFGGRTGNEDIISRLQEMVADLELQQDLIVPLGHTPSQEHFLFEIFRRRLQALTSGWSVAASLQRQRELLMYKRILLRLPSSVLCGSSFQAEQPITARCEQFFHLVNSEMRNFCSHGGALTQDITAHFFRGLLNACLRSRDPSLMVDFILAKCQTKCPLILTSALVWWPSLEPVLLCRWRRHCQSPLPRELQKLQEGRQFASDFLSPEAASPAPNPDWLSAAALHFAIQQVREENIRKQLKKLDCEREELLVFLFFFSLMGLLSSHLTSNSTTDLPKAFHVCAAILECLEKRKISWLALFQLTESDLRLGRLLLRVAPDQHTRLLPFAFYSLLSYFHEDAAIREEAFLHVAVDMYLKLVQLFVAGDTSTVSPPAGRSLELKGQGNPVELITKARLFLLQLIPRCPKKSFSHVAELLADRGDCDPEVSAALQSRQQAAPDADLSQEPHLF
